The numbers were not newly measured in paper PMC6323488, which cites them from elsewhere.

The target of the data set is EGFR (Homo sapiens) (UniProt P00533).

On to CTGF (from UniProt P29279), for which the Kd (commonly a measure of binding affinity in units of concentration) is 0.126 µM.
